# Test results taken from US20060110789.
# B1: (5)M3+TE (module 3 of DEBS with the N-terminal linker of module 5, fused to thioesterase) (protein)
# chain: MSGDNGMTEEKLRRYLKRTVTELDSVTARLREVEHRAGIAIVSMACRLPGGVNTPQRLWELLREGGETLSGFPTDRGWDLARLHHPDPDNPGTSYVDKGGFLDDAAGFDAEFFGVSPREAAAMDPQQRLLLETSWELVENAGIDPHSLRGTATGVFLGVAKFGYGEDTAAAEDVEGYSVTGVAPAVASGRISYTMGLEGPSISVDTACSSSLVALHLAVESLRKGESSMAVVGGAAVMATPGVFVDFSRQRALAADGRSKAFGAGADGFGFSEGVTLVLLERLSEARRNGHEVLAVVRGSALNQDGASNGLSAPSGPAQRRVIRQALESCGLEPGDVDAVEAHGTGTALGDPIEANALLDTYGRDRDADRPLWLGSVKSNIGHTQAAAGVTGLLKVVLALRNGELPATLHVEEPTPHVDWSSGGVALLAGNQPWRRGERTRRARVSAFGISGTNAHVIVEEAPEREHRETTAHDGRPVPLVVSARTTAALRAQAAQIAELLERPDADLAGVGLGLATTRARHEHRAAVVASTREEAVRGLREIAAGAATADAVVEGVTEVDGRNVVFLFPGQGSQWAGMGAELLSSSPVFAGKIRACDESMAPMQDWKVSDVLRQAPGAPGLDRVDVVQPVLFAVMVSLAELWRSYGVEPAAVVGHSQGEIAAAHVAGALTLEDAAKLVVGRSRLMRSLSGEGGMAAVALGEAAVRERLRPWQDRLSVAAVNGPRSVVVSGEPGALRAFSEDCAAEGIRVRDIDVDYASHSPQIERVREELLETTGDIAPRPARVTFHSTVESRSMDGTELDARYWYRNLRETVRFADAVTRLAESGYDAFIEVSPHPVVVQAVEEAVEEADGAEDAVVVGSLHRDGGDLSAFLRSMATAHVSGVDIRWDVALPGAAPFALPTYPFQRKRYWLQPAAPAAASDELAYRVSWTPIEKPESGNLDGDWLVVTPLISPEWTEMLCEAINANGGRALRCEVDTSASRTEMAQAVAQAGTGFRGVLSLLSSDESACRPGVPAGAVGLLTLVQALGDAGVDAPVWCLTQGAVRTPADDDLARPAQTTAHGFAQVAGLELPGRWGGVVDLPESVDDAALRLLVAVLRGGGRAEDHLAVRDGRLHGRRVVRASLPQSGSRSWTPHGTVLVTGAASPVGDQLVRWLADRGAERLVLAGACPGDDLLAAVEEAGASAVVCAQDAAALREALGDEPVTALVHAGTLTNFGSISEVAPEEFAETIAAKTALLAVLDEVLGDRAVEREVYCSSVAGIWGGAGMAAYAAGSAYLDALAEHHRARGRSCTSVAWTPWALPGGAVDDGYLRERGLRSLSADRAMRTWERVLAAGPVSVAVADVDWPVLSEGFAATRPTALFAELAGRGGQAEAEPDSGPTGEPAQRLAGLSPDEQQENLLELVANAVAEVLGHESAAEINVRRAFSELGLDSLNAMALRKRLSASTGLRLPASLVFDHPTVTALAQHLRICCAGTAAISGPHEFTRLAGALRGIAPVRAVPQPGYEEGEPLPSSMAAVAAVQADAVIRTQGDKPFVVAGHSAGALMAYALATELLDRGHPPRGVVLIDVYPPGHQDAMNAWLEELTATLFDRETVRMDDTRLTALGAYDRLTGQWRPRETGLPTLLVSAGEPMGPWPDDSWKPTWPFEHDTVAVPGDHFTMVQEHADAIARHIDAWHHHHHH
# B2: M3+TE (module 3 of DEBS with its own N-terminal linker, fused to thioesterase) (protein)
# chain: VTDSEKVAEYLRRATLDLRAARQRIRELESIAIVSMACRLPGGVNTPQRLWELLREGGETLSGFPTDRGWDLARLHHPDPDNPGTSYVDKGGFLDDAAGFDAEFFGVSPREAAAMDPQQRLLLETSWELVENAGIDPHSLRGTATGVFLGVAKFGYGEDTAAAEDVEGYSVTGVAPAVASGRISYTMGLEGPSISVDTACSSSLVALHLAVESLRKGESSMAVVGGAAVMATPGVFVDFSRQRALAADGRSKAFGAGADGFGFSEGVTLVLLERLSEARRNGHEVLAVVRGSALNQDGASNGLSAPSGPAQRRVIRQALESCGLEPGDVDAVEAHGTGTALGDPIEANALLDTYGRDRDADRPLWLGSVKSNIGHTQAAAGVTGLLKVVLALRNGELPATLHVEEPTPHVDWSSGGVALLAGNQPWRRGERTRRARVSAFGISGTNAHVIVEEAPEREHRETTAHDGRPVPLVVSARTTAALRAQAAQIAELLERPDADLAGVGLGLATTRARHEHRAAVVASTREEAVRGLREIAAGAATADAVVEGVTEVDGRNVVFLFPGQGSQWAGMGAELLSSSPVFAGKIRACDESMAPMQDWKVSDVLRQAPGAPGLDRVDVVQPVLFAVMVSLAELWRSYGVEPAAVVGHSQGEIAAAHVAGALTLEDAAKLVVGRSRLMRSLSGEGGMAAVALGEAAVRERLRPWQDRLSVAAVNGPRSVVVSGEPGALRAFSEDCAAEGIRVRDIDVDYASHSPQIERVREELLETTGDIAPRPARVTFHSTVESRSMDGTELDARYWYRNLRETVRFADAVTRLAESGYDAFIEVSPHPVVVQAVEEAVEEADGAEDAVVVGSLHRDGGDLSAFLRSMATAHVSGVDIRWDVALPGAAPFALPTYPFQRKRYWLQPAAPAAASDELAYRVSWTPIEKPESGNLDGDWLVVTPLISPEWTEMLCEAINANGGRALRCEVDTSASRTEMAQAVAQAGTGFRGVLSLLSSDESACRPGVPAGAVGLLTLVQALGDAGVDAPVWCLTQGAVRTPADDDLARPAQTTAHGFAQVAGLELPGRWGGVVDLPESVDDAALRLLVAVLRGGGRAEDHLAVRDGRLHGRRVVRASLPQSGSRSWTPHGTVLVTGAASPVGDQLVRWLADRGAERLVLAGACPGDDLLAAVEEAGASAVVCAQDAAALREALGDEPVTALVHAGTLTNFGSISEVAPEEFAETIAAKTALLAVLDEVLGDRAVEREVYCSSVAGIWGGAGMAAYAAGSAYLDALAEHHRARGRSCTSVAWTPWALPGGAVDDGYLRERGLRSLSADRAMRTWERVLAAGPVSVAVADVDWPVLSEGFAATRPTALFAELAGRGGQAEAEPDSGPTGEPAQRLAGLSPDEQQENLLELVANAVAEVLGHESAAEINVRRAFSELGLDSLNAMALRKRLSASTGLRLPASLVFDHPTVTALAQHLRICCAGTAAISGPHEFTRLAGALRGIAPVRAVPQPGYEEGEPLPSSMAAVAAVQADAVIRTQGDKPFVVAGHSAGALMAYALATELLDRGHPPRGVVLIDVYPPGHQDAMNAWLEELTATLFDRETVRMDDTRLTALGAYDRLTGQWRPRETGLPTLLVSAGEPMGPWPDDSWKPTWPFEHDTVAVPGDHFTMVQEHADAIARHIDAWHHHHHH
# Columns and labels:
# [1] = target: T1, diketide-ACP2(4) (DEBS ACP2 with the C-terminal linker of module 4, loaded with diketide), Q03131
# T1 chain: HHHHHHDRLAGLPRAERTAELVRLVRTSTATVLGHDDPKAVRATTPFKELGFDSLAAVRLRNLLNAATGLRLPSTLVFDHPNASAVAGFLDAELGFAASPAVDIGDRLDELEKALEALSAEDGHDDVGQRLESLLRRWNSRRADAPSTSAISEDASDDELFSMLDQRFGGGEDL
# [2] = target: T2, diketide-ACP4(4) (DEBS ACP4 with its natural C-terminal linker, loaded with diketide), Q03132
# T2 chain: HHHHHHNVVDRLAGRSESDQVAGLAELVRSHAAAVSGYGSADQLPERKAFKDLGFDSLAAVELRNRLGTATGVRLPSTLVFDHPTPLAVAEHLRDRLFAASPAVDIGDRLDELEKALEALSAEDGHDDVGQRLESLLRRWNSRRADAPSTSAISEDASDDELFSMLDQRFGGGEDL
# [3] = target: T3, diketide-ACP2(2) (DEBS ACP2 with its natural C-terminal linker, loaded with diketide), Q03131
# T3 chain: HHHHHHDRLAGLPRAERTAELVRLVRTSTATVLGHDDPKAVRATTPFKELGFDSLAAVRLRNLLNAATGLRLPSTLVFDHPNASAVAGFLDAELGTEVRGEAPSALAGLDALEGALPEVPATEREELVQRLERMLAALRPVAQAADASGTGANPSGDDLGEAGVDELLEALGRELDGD
Protein,"KM of transfer and elongation, fold increase against the natural linker pair (diketide-ACP2(2) with (3)M3+TE) [1]",kcat/KM [1],"kcat/KM, fold decrease against the matched reaction (FIG. 27 C) [2]",triketide lactone formation at 20 µM substrate (FIG. 27 C) [2],"kcat/KM, fold decrease against the matched reaction (FIG. 27 B) [1]",triketide lactone formation at 20 µM substrate (FIG. 27 B) [1],triketide lactone formation at 20 µM substrate (FIG. 27 D) [2],k60 µM (overall rate of product formation at 60 µM substrate) [3] [min-],kcat/KM [3] [M⁻¹ s⁻¹],triketide lactone formation at 20 µM substrate (FIG. 27 A) [3]
B1,increases the KM for the ACP2-module 3 reaction by approximately 7-fold,the kcat/KM value decreases to 56 min^-1mM^-1,"fell approximately 3-5 fold and 80-200 fold, respectively",transfer of diketide from the donor ACP to the acceptor module occurred at 20 µM substrate concentration,,,,,,
B2,,,,,"fell approximately 3-5 fold and 80-200 fold, respectively",transfer of diketide from the donor ACP to the acceptor module occurred at 20 µM substrate concentration,no product was detected at the same substrate concentrations,1.4,6500,transfer of diketide from the donor ACP to the acceptor module occurred at 20 µM substrate concentration
